Columns and labels:
[1] = target: Truncated recombinant LRRK2 wild-type (aa 970-2527) (human) (UniProt Q5S007)
[2] = target: Truncated recombinant LRRK2-G2019S (aa 970-2527) (human) (UniProt Q5S007)

## 4E-BP (eukaryotic initiation factor 4E (eIF4E)-binding protein), His6-tagged 4E-BP1 (from UniProt Q13541 1-118) (natural protein)
[1]
  Km for 4E-BP of its phosphorylation by LRRK2 (in vitro kinase assay, 33P incorporation, 12 nM LRRK2, 1.5-12 µM 4E-BP, Michaelis-Menten fit): 2.69 µM
[2]
  Km for 4E-BP of its phosphorylation by LRRK2-G2019S (in vitro kinase assay, 33P incorporation, 12 nM LRRK2, 1.5-12 µM 4E-BP, Michaelis-Menten fit): 2.87 µM

— paper PMC2806920
